Assay results published in publication PMC2526197.

Experiments:
[1] = biological target: Evasin-3 (HEK) (Rhipicephalus sanguineus) (UniProt P0C8E8); test: SPR
[2] = biological target: CXCL8 (human)

Evasin-3 (E. coli), sequence (P0C8E8 21-86): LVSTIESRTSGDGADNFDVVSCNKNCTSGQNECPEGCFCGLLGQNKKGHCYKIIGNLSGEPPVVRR
Evasin-3 (HEK) (Rhipicephalus sanguineus), sequence (P0C8E8 21-86): as above

Kd [1] [nM] | IC50 of inhibition of CXCL8-induced chemotaxis of neutrophils in vitro [2] [nM] | Substance
0.7 | – | CXCL8 (ligand)
– | 3.35 | Evasin-3 (E. coli) (from UniProt P0C8E8 21-86) (natural protein)
